Assay results: patent publication US11466286B2, “Methods and compositions for conferring and/or enhancing herbicide tolerance using protoporphyrinogen oxidase or variant thereof” (FarmHannong Co., Ltd., priority 2016, dated 2022)

B1: CyPPO10 V165S + F360V: CyPPO10 (SEQ ID NO: 2) PPO variant (protein)
chain: MIEVDVAIVGGGLSGLSVAWRLQRSAPHYSGVLLEASDRLGGNITTQAAEGFVWELGPNSFAPTPALLQLIAEVGLHSELIRGDRHLPRYIYWRGELYPLEPTRPLALATSNLLSPWGKVRAALGALGFVPPYLGSGDESVDSFFRRHLGQEVAERLVAPFVSGSYAGDPQQLSAAAAFRRIAQLEKLGGSLIAGALRLRRQQPPQPKPPAQVQMRPGELGSFREGLAALPRAIAQQLKAPLHLQTPVEAITPEPKGGYLLRSGEQTWHARSVVLATPAYQTAELVAPFQPAIARALATIPYPTVACVVLAYPAGLGRSVRPGFGVLVPRGQGIRTLGTIWSSCLFPQRTPAGWQVFTSVIGGATDPDLASLREEAIVEQVQQDLTRLLDLPAAKARLLGMKVWRRAIPQYIVGYPQQWQQVTHALTQTPGLFLCSNYAEGVALGDRVEHGNRTAAAVAAYLAGGQS
modifications: Synthetic CyPPO10
B2: CyPPO10 V305M + F360M: CyPPO10 (SEQ ID NO: 2) PPO variant (protein)
chain: MIEVDVAIVGGGLSGLSVAWRLQRSAPHYSGVLLEASDRLGGNITTQAAEGFVWELGPNSFAPTPALLQLIAEVGLHSELIRGDRHLPRYIYWRGELYPLEPTRPLALATSNLLSPWGKVRAALGALGFVPPYLGSGDESVDSFFRRHLGQEVAERLVAPFVSGVYAGDPQQLSAAAAFRRIAQLEKLGGSLIAGALRLRRQQPPQPKPPAQVQMRPGELGSFREGLAALPRAIAQQLKAPLHLQTPVEAITPEPKGGYLLRSGEQTWHARSVVLATPAYQTAELVAPFQPAIARALATIPYPTMACVVLAYPAGLGRSVRPGFGVLVPRGQGIRTLGTIWSSCLFPQRTPAGWQVFTSMIGGATDPDLASLREEAIVEQVQQDLTRLLDLPAAKARLLGMKVWRRAIPQYIVGYPQQWQQVTHALTQTPGLFLCSNYAEGVALGDRVEHGNRTAAAVAAYLAGGQS
modifications: Synthetic CyPPO10
B3: CyPPO10 R89A + V305T + F360M: CyPPO10 (SEQ ID NO: 2) PPO variant (protein)
chain: MIEVDVAIVGGGLSGLSVAWRLQRSAPHYSGVLLEASDRLGGNITTQAAEGFVWELGPNSFAPTPALLQLIAEVGLHSELIRGDRHLPAYIYWRGELYPLEPTRPLALATSNLLSPWGKVRAALGALGFVPPYLGSGDESVDSFFRRHLGQEVAERLVAPFVSGVYAGDPQQLSAAAAFRRIAQLEKLGGSLIAGALRLRRQQPPQPKPPAQVQMRPGELGSFREGLAALPRAIAQQLKAPLHLQTPVEAITPEPKGGYLLRSGEQTWHARSVVLATPAYQTAELVAPFQPAIARALATIPYPTTACVVLAYPAGLGRSVRPGFGVLVPRGQGIRTLGTIWSSCLFPQRTPAGWQVFTSMIGGATDPDLASLREEAIVEQVQQDLTRLLDLPAAKARLLGMKVWRRAIPQYIVGYPQQWQQVTHALTQTPGLFLCSNYAEGVALGDRVEHGNRTAAAVAAYLAGGQS
modifications: Synthetic CyPPO10
B4: CyPPO10 V305T + F360I: CyPPO10 (SEQ ID NO: 2) PPO variant (protein)
chain: MIEVDVAIVGGGLSGLSVAWRLQRSAPHYSGVLLEASDRLGGNITTQAAEGFVWELGPNSFAPTPALLQLIAEVGLHSELIRGDRHLPRYIYWRGELYPLEPTRPLALATSNLLSPWGKVRAALGALGFVPPYLGSGDESVDSFFRRHLGQEVAERLVAPFVSGVYAGDPQQLSAAAAFRRIAQLEKLGGSLIAGALRLRRQQPPQPKPPAQVQMRPGELGSFREGLAALPRAIAQQLKAPLHLQTPVEAITPEPKGGYLLRSGEQTWHARSVVLATPAYQTAELVAPFQPAIARALATIPYPTTACVVLAYPAGLGRSVRPGFGVLVPRGQGIRTLGTIWSSCLFPQRTPAGWQVFTSIIGGATDPDLASLREEAIVEQVQQDLTRLLDLPAAKARLLGMKVWRRAIPQYIVGYPQQWQQVTHALTQTPGLFLCSNYAEGVALGDRVEHGNRTAAAVAAYLAGGQS
modifications: Synthetic CyPPO10
B5: CyPPO10 S60T + V165S + F360M: CyPPO10 (SEQ ID NO: 2) PPO variant (protein)
chain: MIEVDVAIVGGGLSGLSVAWRLQRSAPHYSGVLLEASDRLGGNITTQAAEGFVWELGPNTFAPTPALLQLIAEVGLHSELIRGDRHLPRYIYWRGELYPLEPTRPLALATSNLLSPWGKVRAALGALGFVPPYLGSGDESVDSFFRRHLGQEVAERLVAPFVSGSYAGDPQQLSAAAAFRRIAQLEKLGGSLIAGALRLRRQQPPQPKPPAQVQMRPGELGSFREGLAALPRAIAQQLKAPLHLQTPVEAITPEPKGGYLLRSGEQTWHARSVVLATPAYQTAELVAPFQPAIARALATIPYPTVACVVLAYPAGLGRSVRPGFGVLVPRGQGIRTLGTIWSSCLFPQRTPAGWQVFTSMIGGATDPDLASLREEAIVEQVQQDLTRLLDLPAAKARLLGMKVWRRAIPQYIVGYPQQWQQVTHALTQTPGLFLCSNYAEGVALGDRVEHGNRTAAAVAAYLAGGQS
modifications: Synthetic CyPPO10
B6: CyPPO10 S60T + V165S + F360I: CyPPO10 (SEQ ID NO: 2) PPO variant (protein)
chain: MIEVDVAIVGGGLSGLSVAWRLQRSAPHYSGVLLEASDRLGGNITTQAAEGFVWELGPNTFAPTPALLQLIAEVGLHSELIRGDRHLPRYIYWRGELYPLEPTRPLALATSNLLSPWGKVRAALGALGFVPPYLGSGDESVDSFFRRHLGQEVAERLVAPFVSGSYAGDPQQLSAAAAFRRIAQLEKLGGSLIAGALRLRRQQPPQPKPPAQVQMRPGELGSFREGLAALPRAIAQQLKAPLHLQTPVEAITPEPKGGYLLRSGEQTWHARSVVLATPAYQTAELVAPFQPAIARALATIPYPTVACVVLAYPAGLGRSVRPGFGVLVPRGQGIRTLGTIWSSCLFPQRTPAGWQVFTSIIGGATDPDLASLREEAIVEQVQQDLTRLLDLPAAKARLLGMKVWRRAIPQYIVGYPQQWQQVTHALTQTPGLFLCSNYAEGVALGDRVEHGNRTAAAVAAYLAGGQS
modifications: Synthetic CyPPO10
B7: CyPPO10 A167C + F360M: CyPPO10 (SEQ ID NO: 2) PPO variant (protein)
chain: MIEVDVAIVGGGLSGLSVAWRLQRSAPHYSGVLLEASDRLGGNITTQAAEGFVWELGPNSFAPTPALLQLIAEVGLHSELIRGDRHLPRYIYWRGELYPLEPTRPLALATSNLLSPWGKVRAALGALGFVPPYLGSGDESVDSFFRRHLGQEVAERLVAPFVSGVYCGDPQQLSAAAAFRRIAQLEKLGGSLIAGALRLRRQQPPQPKPPAQVQMRPGELGSFREGLAALPRAIAQQLKAPLHLQTPVEAITPEPKGGYLLRSGEQTWHARSVVLATPAYQTAELVAPFQPAIARALATIPYPTVACVVLAYPAGLGRSVRPGFGVLVPRGQGIRTLGTIWSSCLFPQRTPAGWQVFTSMIGGATDPDLASLREEAIVEQVQQDLTRLLDLPAAKARLLGMKVWRRAIPQYIVGYPQQWQQVTHALTQTPGLFLCSNYAEGVALGDRVEHGNRTAAAVAAYLAGGQS
modifications: Synthetic CyPPO10
B8: CyPPO10 A167L + F360I: CyPPO10 (SEQ ID NO: 2) PPO variant (protein)
chain: MIEVDVAIVGGGLSGLSVAWRLQRSAPHYSGVLLEASDRLGGNITTQAAEGFVWELGPNSFAPTPALLQLIAEVGLHSELIRGDRHLPRYIYWRGELYPLEPTRPLALATSNLLSPWGKVRAALGALGFVPPYLGSGDESVDSFFRRHLGQEVAERLVAPFVSGVYLGDPQQLSAAAAFRRIAQLEKLGGSLIAGALRLRRQQPPQPKPPAQVQMRPGELGSFREGLAALPRAIAQQLKAPLHLQTPVEAITPEPKGGYLLRSGEQTWHARSVVLATPAYQTAELVAPFQPAIARALATIPYPTVACVVLAYPAGLGRSVRPGFGVLVPRGQGIRTLGTIWSSCLFPQRTPAGWQVFTSIIGGATDPDLASLREEAIVEQVQQDLTRLLDLPAAKARLLGMKVWRRAIPQYIVGYPQQWQQVTHALTQTPGLFLCSNYAEGVALGDRVEHGNRTAAAVAAYLAGGQS
modifications: Synthetic CyPPO10

System: CyPPO10
Assay: PPO enzyme activity and IC50 by herbicides, CyPPO10 wild type and variants (MBP-PPO fusion)
Format: biochemical, Thermosynechococcus elongatus BP-1
Conditions: PPO enzyme activity of CyPPO10 protein, wild type = 100
Procedure: The enzyme activities of PPO protein and PPO protein variants were examined, and inhibition assay by PPO-inhibiting herbicides was conducted. It was confirmed that the PPO protein has low water-solubility, but in case of being expressed as a fusion protein with MBP (maltose binding protein) (MBP-PPO), the PPO protein is able to be stably expressed as water-soluble form. Therefore, the wild type and variant proteins which were expressed in the form of fusion protein with MBP were used in the present test (refer to FIG. 4).
In order to express wild type genes and mutant genes of CyPPO10 and CyPPO13 (refer to Example 1 and Example 4), those genes were introduced to pMAL-c2X vector (refer to FIG. 5) respectively, and then cloned to BL21 (DE3) E. coli (CodonPlus).
The enzyme activity of the purified wild type protein and variant proteins of CyPPO10 and CyPPO13 was measured by the following process.
At first, a substrate of PPO protein, Protoporphyrinogen IX was synthesized. This process was performed in the space where nitrogen gas is streamed. 6 mg of protoporphyrin IX was dissolved in 20% (v/v) EtOH 20 ml, and stirred under dark condition for 30 minutes. The obtained protoporphyrinogen IX solution was put into a 15 ml screw tube in an amount of 800 and flushed with nitrogen gas for 5 minutes. To this, 1 g of sodium amalgam was added and vigorous shaking was performed for 2 minutes. The lid was open to exhaust hydrogen gas in the tube. Thereafter, the lid was closed and incubated for 3 minutes. The […] was filtered using syringe and cellulose membrane filter. To 600 μl of the obtained […], 2M MOPS [3-(N-morpholino)propanesulfonic acid] was added in an amount of approximately 300 thereby adjusting pH to 8.0. To determine the enzyme activity of PPO protein, a reaction mixture was prepared with the following composition (based on 10 ml): 50 mM Tris-Cl (pH 8.0); 50 mM NaCl; 0.04% (v/v) Tween 20; 40 mM glucose (0.072 g); 5 units glucose oxidase (16.6 mg); and 10 units catalase (1 μl).
Two hundred microliters (200 μl) of reaction mixture containing a purified PPO protein were placed in 96 well plates, and preincubated for 30 min at room temperature to reduce the oxygen concentration by the reaction of glucose oxidase-catalase. The mineral oil was layered and then the reaction was initiated by adding the substrate, […], to a final concentration of 50 μM. The reaction proceeded at room temperature for 30 min and the fluorescence of protoporphyrin IX was measured using Microplate reader (Sense, Hidex) (excitation: 405 nm; emission: 633 nm). To calculate the PPO enzyme activity, protoporphyrinogen IX solution was kept open in the air to oxidize the solution (overnight). To this, 2.7N HCl was added, and the absorbance at 408 nm was measured. A standard curve was generated using standard protoporphyrin IX, and the PPO activity was measured by calibration of protoporphyrin IX using the standard curve of protoporphyrin IX.
The final concentration of each herbicide was as follows: […]

With B1 as the molecule, how does the “Activity (%)” value read?
Its value is 52%.

Which “Activity (%)” value does the source give for B2 here?
Its value is 87%.

With B3 as the molecule, how does the “Activity (%)” value read?
The value was 5%.

B4 was tested. Which “Activity (%)” value did it give?
The value was 10%.

For B5, which “Activity (%)” value is on record?
The value was 17%.

With B6 as the molecule, how does the “Activity (%)” value read?
The value was 12%.

Which “Activity (%)” value does the source give for B7 here?
Its value is 90%.

B8 was tested. Which “Activity (%)” value did it give?
Its value is 32%.
